# Measurements as given in PMC3880866 (Nature structural & molecular biology, 2012).
# B1: RNF2(1–114)–BMI1(1–109) (complex)
# chain 1: MSQAVQTNGTQPLSKTWELSLYELQRTPQEAITDGLEIVVSPRSLHSELMCPICLDMLKNTMTTKECLHRFCADCIITALRSGNKECPTCRKKLVSKRSLRPDPNFDALISKIY
# chain 2: MHRTTRIKITELNPHLMCVLCGGYFIDATTIIECLHSFCKTCIVRYLETSKYCPICDVQVHKTRPLLNIRSDKTLQDIVYKLVPGLFKNEMKRRRDFYAAHPSADAANG
# B2: GST-BIRC3(541–C) (domain or fragment)
# chain: DLPVEEQLRRLQEERTCKVCMDKEVSIVFIPCGHLVVCKDCAPSLRKCPICRSTIKGTVRTFLS
# B3: GST-BIRC7(239–C) (domain or fragment)
# chain: VEAQLRRLQEERTCKVCLDRAVSIVFVPCGHLVCAECAPGLQLCPICRAPVRSRVRTFLS
# B4: MDM2(428–C)–MDMX(428–C) (complex)
# chain 1: SSLPLNAIEPCVICQGRPKNGCIVHGKTGHLMACFTCAKKLKKRNKPCPVCRQPIQMIVLTYFP
# chain 2: EDCQNLLKPCSLCEKRPRDGNIIHGRTGHLVTCFHCARRLKKAGASCPICKKEIQLVIKVFIA
# B5: GST-BIRC7 full length (enzyme)
# chain: MGPKDSAKCLHRGPQPSHWAAGDGPTQERCGPRSLGSPVLGLDTCRAWDHVDGQILGQLRPLTEEEEEEGAGATLSRGPAFPGMGSEELRLASFYDWPLTAEVPPELLAAAGFFHTGHQDKVRCFFCYGGLQSWKRGDDPWTEHAKWFPSCQFLLRSKGRDFVHSVQETHSQLLGSWDPWEEPEDAAPVAPSVPASGYPELPTPRREVQSESAQEPGGVSPAEAQRAWWVLEPPGARDVEAQLRRLQEERTCKVCLDRAVSIVFVPCGHLVCAECAPGLQLCPICRAPVRSRVRTFLS
# B6: BIRC7 I284A (as in size exclusion chromatography and ubiquitination assays) (enzyme)
# chain: MGPKDSAKCLHRGPQPSHWAAGDGPTQERCGPRSLGSPVLGLDTCRAWDHVDGQILGQLRPLTEEEEEEGAGATLSRGPAFPGMGSEELRLASFYDWPLTAEVPPELLAAAGFFHTGHQDKVRCFFCYGGLQSWKRGDDPWTEHAKWFPSCQFLLRSKGRDFVHSVQETHSQLLGSWDPWEEPEDAAPVAPSVPASGYPELPTPRREVQSESAQEPGGVSPAEAQRAWWVLEPPGARDVEAQLRRLQEERTCKVCLDRAVSIVFVPCGHLVCAECAPGLQLCPACRAPVRSRVRTFLS
# B7: BIRC7 F296H (as in size exclusion chromatography and ubiquitination assays) (enzyme)
# chain: MGPKDSAKCLHRGPQPSHWAAGDGPTQERCGPRSLGSPVLGLDTCRAWDHVDGQILGQLRPLTEEEEEEGAGATLSRGPAFPGMGSEELRLASFYDWPLTAEVPPELLAAAGFFHTGHQDKVRCFFCYGGLQSWKRGDDPWTEHAKWFPSCQFLLRSKGRDFVHSVQETHSQLLGSWDPWEEPEDAAPVAPSVPASGYPELPTPRREVQSESAQEPGGVSPAEAQRAWWVLEPPGARDVEAQLRRLQEERTCKVCLDRAVSIVFVPCGHLVCAECAPGLQLCPICRAPVRSRVRTHLS
# B8: BIRC7 R286A (as in size exclusion chromatography and ubiquitination assays) (enzyme)
# chain: MGPKDSAKCLHRGPQPSHWAAGDGPTQERCGPRSLGSPVLGLDTCRAWDHVDGQILGQLRPLTEEEEEEGAGATLSRGPAFPGMGSEELRLASFYDWPLTAEVPPELLAAAGFFHTGHQDKVRCFFCYGGLQSWKRGDDPWTEHAKWFPSCQFLLRSKGRDFVHSVQETHSQLLGSWDPWEEPEDAAPVAPSVPASGYPELPTPRREVQSESAQEPGGVSPAEAQRAWWVLEPPGARDVEAQLRRLQEERTCKVCLDRAVSIVFVPCGHLVCAECAPGLQLCPICAAPVRSRVRTFLS
# Tests used:
# UbcH5B = UbcH5B (UniProt P62837 1-147); experiment: SPR
# [1] = biological target: UbcH5BS~Ub (UbcH5B C85S covalently ester-linked to the C-terminus of ubiquitin) (UniProt P62837;P0CG48, C85S); experiment: SPR
# UbcH5BS D117A~Ub = UbcH5BS D117A~Ub (UniProt P62837;P0CG48, C85S | D117A); experiment: SPR
# SEC = biological target: the molecule itself; experiment: SEC
Binder,Kd [1],stoichiometry N (SEC),also measured
B1,–,–,Kd (UbcH5B): 91 µM
B2,5 µM,–,–
B3,136 µM,–,–
B4,130 µM,–,–
B5,181 µM,–,Kd (UbcH5BS D117A~Ub): 191 µM
B6,–,2,–
B7,–,2,–
B8,–,2,–
